# Data published in publication PMC9668932.
# Target: heat shock protein HSP 90-beta, full length, His6-tagged (human) (UniProt P08238)
# Experiment: cryo-EM structure; ternary Hsp90-XAP2-AHR complex, co-expressed in Sf9 and co-purified, with indirubin at 5x molar excess; 20 mM Bis-Tris-HCl pH 7.0, 50 mM NaCl, 10 mM KCl, 10 mM MgCl2, 20 mM Na2MoO4, 2 mM BME; global map 2.85 Å, focused map 4.07 Å
# Sequence of heat shock protein HSP 90-beta, full length, His6-tagged, P08238 1-724 (natural protein; other documents disagree on this pair) (P08238 whole entry): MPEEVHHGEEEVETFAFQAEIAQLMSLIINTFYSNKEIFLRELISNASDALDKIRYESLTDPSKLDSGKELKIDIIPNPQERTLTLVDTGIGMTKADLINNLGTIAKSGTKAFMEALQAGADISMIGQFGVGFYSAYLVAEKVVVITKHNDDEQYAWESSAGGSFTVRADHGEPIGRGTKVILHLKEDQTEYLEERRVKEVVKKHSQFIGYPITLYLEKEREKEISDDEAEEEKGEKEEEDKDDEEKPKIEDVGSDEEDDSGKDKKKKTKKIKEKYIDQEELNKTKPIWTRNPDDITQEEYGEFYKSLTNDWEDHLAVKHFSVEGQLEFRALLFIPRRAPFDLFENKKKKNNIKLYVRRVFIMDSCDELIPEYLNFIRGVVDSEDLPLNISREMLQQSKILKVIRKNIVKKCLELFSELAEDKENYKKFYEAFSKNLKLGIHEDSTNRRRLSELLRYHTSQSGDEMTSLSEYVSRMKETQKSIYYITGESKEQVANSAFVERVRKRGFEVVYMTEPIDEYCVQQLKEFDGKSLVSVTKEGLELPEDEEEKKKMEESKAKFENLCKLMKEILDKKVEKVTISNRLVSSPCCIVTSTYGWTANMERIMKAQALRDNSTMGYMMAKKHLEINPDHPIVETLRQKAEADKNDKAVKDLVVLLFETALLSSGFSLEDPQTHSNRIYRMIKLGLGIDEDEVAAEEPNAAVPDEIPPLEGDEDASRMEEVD
substance,measurement,value
"heat shock protein HSP 90-beta, full length, His6-tagged, P08238 1-724 (natural protein; other documents disagree on this pair)",stoichiometry N,2
